Source: US20220017612A1 (TILOS THERAPEUTICS, published 2022)
Each block holds one binder with its values, some of them ahead of it.

What was measured:
[1] = target: T1, human LAP-TGFβ3 overexpressed on HT1080 cells (human, UniProt P10600 24-412); assay: flow cytometry titration, HT1080-huB3 cells
T1 construct: also called HT1080-huB3
T1 sequence: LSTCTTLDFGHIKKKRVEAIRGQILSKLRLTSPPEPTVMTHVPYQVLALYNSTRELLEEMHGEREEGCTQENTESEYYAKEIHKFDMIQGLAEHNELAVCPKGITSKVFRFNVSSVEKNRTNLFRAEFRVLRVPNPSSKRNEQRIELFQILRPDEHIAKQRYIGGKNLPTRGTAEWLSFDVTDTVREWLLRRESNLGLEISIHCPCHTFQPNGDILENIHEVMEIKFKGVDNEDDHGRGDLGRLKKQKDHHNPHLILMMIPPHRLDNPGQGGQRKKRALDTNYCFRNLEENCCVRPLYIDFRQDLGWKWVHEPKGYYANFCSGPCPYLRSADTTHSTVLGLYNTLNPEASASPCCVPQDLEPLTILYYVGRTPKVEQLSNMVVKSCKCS
Method: This Example describes the binding of anti-LAP antibodies to LAP-TGFβ isoforms and LAP-TGFβ variants. In addition to antibodies 28G11_hIgG1, 22F9_hIgG1, and 20E6_hIgG1, anti-LAP antibodies 17G8_hIgG1, 24E3_hIgG1, and 2C9_(hyb) were also tested in this experiment. Briefly, 4×10⁵ each of (a) HT1080 cells, (b) HT1080 cells overexpressing human LAP-TGFβ1, (c) HT1080 cells overexpressing human LAP-TGFβ2, (d) HT1080 cells overexpressing human LAP-TGFβ3, (e) HT1080 cells overexpressing murine LAP-TGFβ1, (f) P3U1 cells, (g) P3U1 cells overexpressing LAP-TGFβ1 and GARP, and (h) P3U1 cells overexpressing LAP-TGFβ1 and LRRC33 were cultured in 96-well plates. The plates were centrifuged for 5 min at 1,500 rpm, liquid was removed, and cells were resuspended with 200 μL FACS buffer. The plates were centrifuged again, diluted primary antibody was added to each well, and the plates were incubated on ice for 20 minutes, followed by centrifugation. The cells were resuspended in 200 μL FACS buffer, centrifuged again, and resuspended in 50 μL diluted secondary antibody (Alexa647-anti-Human IgG or APC-anti-Mouse IgG). The plates were incubated on ice for 20 minutes in the dark, washed twice with 200 μL FACS buffer, and cells from each well (in 200 μL FACS buffer) were read on the Attune NXT instrument.

[2] = target: T2, fusion protein of a human IgG1 Fc domain and human LAP-TGFβ1 (human, UniProt P01137 30-390); assay: BLI, 2:1 heterogeneous ligand model, component 1
T2 construct: printed both as Fc-huB1 and LAP-TGFβ-Fc; also called Fc-huB1; Fc-human LAP
T2 sequence (P01137 30-390 limits assumed): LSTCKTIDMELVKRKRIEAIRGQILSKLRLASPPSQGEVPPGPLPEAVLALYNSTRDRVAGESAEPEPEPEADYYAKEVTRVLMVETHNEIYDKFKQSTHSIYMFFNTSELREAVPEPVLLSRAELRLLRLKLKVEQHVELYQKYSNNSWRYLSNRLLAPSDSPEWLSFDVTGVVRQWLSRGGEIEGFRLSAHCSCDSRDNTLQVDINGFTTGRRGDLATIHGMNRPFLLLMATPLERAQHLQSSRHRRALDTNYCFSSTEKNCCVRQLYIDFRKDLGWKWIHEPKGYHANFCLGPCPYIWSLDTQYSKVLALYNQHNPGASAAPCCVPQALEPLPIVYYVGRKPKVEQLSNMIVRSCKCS
Method: The 20E6_H0.2aL1_IgG1 antibody was biotinylated using EZ-Link SulfoNHS-LC-Biotin (ThermoFisher). A streptavidin-functionalized tip was equilibrated in binding buffer (10 mM sodium phosphate, 150 mM sodium chloride, 1% (w/v) bovine serum albumin, 0.05% (w/v) sodium azide, pH 7.4) and dipped in a 10 μg/mL solution of biotinylated anti-LAP in binding buffer for 30 seconds to load the tip with antibody. The antibody-loaded tip was then washed in binding buffer and placed in a solution containing 0-24 nM of a fusion protein having a human IgG1 Fc domain fused to either human LAP-TGFβ1, human LAP-TGFβ2 or human LAP-TGFβ3. The antigen was allowed to bind to antibody for 5 minutes (association phase), and then the tip was moved to binding buffer (dissociation phase). The association and dissociation phases were fit to a 2:1 heterogenous ligand binding model to determine the binding rate constants. As shown in FIG. 21A and Table 17, 20E6_H0.2aL1_IgG1 bound with sub-nanomolar affinity to human LAP-TGFβ1, but not to human LAP-TGFβ2 (FIG. 21B) or LAP-TGFβ3 (FIG. 21C).

[3] = target: T3, soluble complex of the extracellular domain of human GARP and human LAP-TGFβ1 (human, UniProt Q14392 20-627); assay: BLI, component 1
T3 construct: extracellular domain; also called sGARP-LAP-TGFβ1; sGARP-LAP
T3 sequence (chain, as listed by the source limits assumed, chain 1 of 2): as the sequence (P01137 30-390 limits assumed) above
T3 sequence (Q14392 20-627 limits assumed, chain 2 of 2): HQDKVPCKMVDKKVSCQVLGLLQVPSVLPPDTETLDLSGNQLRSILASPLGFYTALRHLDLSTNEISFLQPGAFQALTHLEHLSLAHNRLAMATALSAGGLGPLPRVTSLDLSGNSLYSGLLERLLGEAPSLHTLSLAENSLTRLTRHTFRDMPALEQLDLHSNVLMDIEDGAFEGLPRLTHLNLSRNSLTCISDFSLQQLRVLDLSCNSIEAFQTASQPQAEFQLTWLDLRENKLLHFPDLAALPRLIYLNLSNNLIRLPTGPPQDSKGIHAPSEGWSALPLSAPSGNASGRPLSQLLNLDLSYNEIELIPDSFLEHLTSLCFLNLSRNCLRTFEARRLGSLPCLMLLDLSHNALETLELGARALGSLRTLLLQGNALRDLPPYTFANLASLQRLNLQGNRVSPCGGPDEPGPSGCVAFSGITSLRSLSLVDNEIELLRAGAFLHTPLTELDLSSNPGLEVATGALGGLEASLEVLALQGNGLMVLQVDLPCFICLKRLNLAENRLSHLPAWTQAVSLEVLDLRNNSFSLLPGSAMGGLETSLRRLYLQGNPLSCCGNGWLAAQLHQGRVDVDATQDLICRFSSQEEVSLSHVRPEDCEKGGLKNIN
Method: (§1) A streptavidin-functionalized tip was equilibrated in binding buffer (10 mM sodium phosphate, 150 mM sodium chloride, 1% (w/v) bovine serum albumin, 0.05% (w/v) sodium azide, pH 7.4) and dipped in a 5 μg/mL solution of biotinylated antibody (i.e., 20E6_H0.2aL1_hIgG1, murine 16F4, or MHG8, a GARP-specific murine IgG2a described in Lienart et al. Science 2018; 362:952-956) in binding buffer for 30 seconds to load the tip with antibody. The antibody-loaded tip was then washed in binding buffer and placed in a solution containing 0-24 nM of a fusion protein containing a human IgG1 Fc domain fused to either human LAP-TGFβ1, the soluble GARP-LAP-TGFβ1 complex, or the soluble ECR3E-LAP-TGFβ1 complex. The antigen was allowed to bind to antibody for 5 minutes (association phase), and then the tip was moved to binding buffer (dissociation phase). The binding and dissociation data for 16F4 and MHG8 were well-fit by a 1:1 binding model. The association and dissociation phases for 20E6_H0.2aL1_hIgG1 antibody were fit to a 2:1 heterogenous ligand binding model to determine the binding rate constants.
(§2) As shown in FIG. 24 and Table 21, the 20E6_H0.2aL1_hIgG1 antibody bound to free LAP-TGFβ1 and the soluble GARP-LAP-TGFβ1 complex with nanomolar affinity, but not to the ECR3E-LAP-TGFβ1 complex. As expected, the anti-GARP antibody (MHG8) bound to the GARP-LAP-TGFβ1 complex, but not to free LAP-TGFβ1 or the ECR3E-LAP-TGFβ1 complex. 16F4 bound tightly to all three constructs.

[4] = target: T2, fusion protein of a human IgG1 Fc …; assay: BLI, 2:1 model, component 2
Method: as §1, §2

[5] = target: murine LAP-TGFβ1 overexpressed on cells (mouse, UniProt P04202 30-390); assay: cell-based or functional assay
murine LAP-TGFβ1 overexpressed on cells, sequence (P04202 30-390): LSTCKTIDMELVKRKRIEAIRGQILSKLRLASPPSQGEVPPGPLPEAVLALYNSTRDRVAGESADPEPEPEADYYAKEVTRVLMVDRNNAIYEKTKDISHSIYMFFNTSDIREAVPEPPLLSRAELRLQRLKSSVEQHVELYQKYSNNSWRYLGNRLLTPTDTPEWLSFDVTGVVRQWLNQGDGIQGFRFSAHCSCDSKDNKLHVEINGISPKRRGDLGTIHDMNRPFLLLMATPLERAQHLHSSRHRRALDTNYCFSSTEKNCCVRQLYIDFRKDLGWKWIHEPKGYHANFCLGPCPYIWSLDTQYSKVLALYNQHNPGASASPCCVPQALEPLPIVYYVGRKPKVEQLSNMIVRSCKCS

binding result [1]: no binding (tested: about 800 ng/well)
B1: 22F9_hIgG1 (antibody, V domains shown)
VH: QVQLQQPGAELVKPGASVKLSCKASGYTFTSYWMHWVKQRPGQGLEWIGMIHPNSGSTNYNEKFKSKATLTVDKSSSTAYMQLSSLTSEDSAVYYCAYYDYDGFFDVWGTGTTVTVSS
VL: DIVLTQSPASLDVSLGQRATISCRASKSVSTSGYSYMHWYQQKSGQPPKLLIYLASNLESGVPARFSGSGSGTHFTLNIHPVEEEDAATYYCQHSRELPYTFGGGTKLEIK

Kd [2]: 11.4 nM
koff [2]: 0.0369 s⁻¹
kon [2]: 3.24e+06 M⁻¹ s⁻¹
Kd [3]: 18.7 nM
koff [3]: 0.0518 s⁻¹
kon [3]: 2.77e+06 M⁻¹ s⁻¹
Kd [4]: 0.96 nM
koff [4]: 0.00092 s⁻¹
kon [4]: 960000 M⁻¹ s⁻¹
IC50 of inhibition of TGFβ1 activation [5]: 1.7 µg/mL
B2: 20E6_H0.2aL1_hIgG1 (antibody)
heavy: not shown
light: DIQMTQSPSSLSASVGDRVTITCRASQDITNYLNWYQQKPGKAVKLLIYYTSRLHSGVPSRFSGSGSGTDYTLTISSLQPEDFATYFCQQGDTLPWTFGQGTKLEIKRTVAAPSVFIFPPSDEQLKSGTASVVCLLNNFYPREAKVQWKVDNALQSGNSQESVTEQDSKDSTYSLSSTLTLSKADYEKHKVYACEVTHQGLSSPVTKSFNRGEC
notes: also called 20E6_H0.2aL1_IgG1; humanized 20E6
